Measured values reported in patent US20240182592A1 (CHIA TAI TIANQING PHARMACEUTICAL GROUP, published 2024).

T1: human BCMA on cells (human, UniProt Q02223 1-184)
T1 sequence (looked up): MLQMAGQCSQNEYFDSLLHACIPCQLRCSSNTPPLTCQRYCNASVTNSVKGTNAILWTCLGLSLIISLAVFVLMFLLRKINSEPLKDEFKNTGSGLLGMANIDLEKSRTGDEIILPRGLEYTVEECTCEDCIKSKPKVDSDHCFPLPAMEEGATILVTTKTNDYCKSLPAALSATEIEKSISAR

T2: human BCMA protein (human, UniProt Q02223 1-54, limits assumed)
T2 construct: also called hBCMA; Antigen BCMA
T2 sequence (looked up): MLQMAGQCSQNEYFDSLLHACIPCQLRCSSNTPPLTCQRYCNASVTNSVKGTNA

B1: anti-BCMA/anti-CD3 multispecific antibody PC3 (bispecific antibody, human IgG1, lambda, L234A L235A)
chain: QVQLVESGGGLVQPGGSLRLSCAASGFTFNSACMGWFRQAPGKGREGVSRIETGYGGTVYADSVKGRFTISRDNSKNTVYLQMNSLRAEDTAVYYCAAKRSWCTPTWWHELDYNYWGQGTQVTVSSGEPKSSDKTHTCPPCPAPEAAGGPSVFLFPPKPKDTLMISRTPEVTCVVVDVSHEDPEVKFNWYVDGVEVHNAKTKPREEQYNSTYRVVSVLTVLHQDWLNGKEYKCKVSNKALAAPIEKTISKAKGQPREPQVCTLPPSREEMTKNQVSLSCAVKGFYPSDIAVEWESNGQPENNYKTTPPVLDSDGSFFLVSKLTVDKSRWQQGNVFSCSVMHEALHNHYTQKSLSLSPGK
heavy: EVQLVESGGGLVQPGGSLRLSCAASGFTFNTYAMNWVRQAPGKGLEWVARIRSKYNNYATYYADSVKDRFTISRDDSKNTAYLQMNNLKTEDTAMYYCVRHGNFGNSYVSWFAYWGQGTLVTVSSASTKGPSVFPLAPSSKSTSGGTAALGCLVKDYFPEPVTVSWNSGALTSGVHTFPAVLQSSGLYSLSSVVTVPSSSLGTQTYICNVNHKPSNTKVDKKVEPKSCDKTHTCPPCPAPEAAGGPSVFLFPPKPKDTLMISRTPEVTCVVVDVSHEDPEVKFNWYVDGVEVHNAKTKPREEQYNSTYRVVSVLTVLHQDWLNGKEYKCKVSNKALAAPIEKTISKAKGQPREPQVYTLPPCREEMTKNQVSLWCLVKGFYPSDIAVEWESNGQPENNYKTTPPVLDSDGSFFLYSKLTVDKSRWQQGNVFSCSVMHEALHNRFTQKSLSLSPGK
light: QVQLVESGGGLVQPGGSLRLSCAASGYSSNVACMAWYRQAPGKGLEWVATIVADFGTTNYAASVKGRFTISQDNSKNTVYLQMNSLRAEDTAVYYCAATQRGGIDWCDEINYWGQGTLVTVSSGGGGSELVVTQEPSLTTSPGGTVTLTCRSSTGAVTTSNYANWVQQKPGQAPRGLIGGTNKRAPGTPARFSGSLLGGKAALTITGVQPEDEAEYYCALWYSNLWVFGGGTKLTVLGQPKANPTVTLFPPSSEELQANKATLVCLISDFYPGAVTVAWKADGSPVKAGVETTKPSKQSNNKYAASSYLSLTPEQWKSHRSYSCQVTHEGSTVEKTVAPTECS
notes: Trivalent; three chains; human IgG1 knobs-into-holes Fc
B2: anti-BCMA/anti-CD3 bispecific control antibody Benchmark (bispecific antibody, human IgG1, kappa, L234A L235A)
heavy 1: not shown
light 1: not shown
heavy 2: not shown
light 2: EVQLLESGGGLVQPGGSLRLSCAASGFTFSTYAMNWVRQAPGKGLEWVSRIRSKYNNYATYYADSVKGRFTISRDDSKNTLYLQMNSLRAEDTAVYYCVRHGNFGNSYVSWFAYWGQGTLVTVSSASVAAPSVFIFPPSDEQLKSGTASVVCLLNNFYPREAKVQWKVDNALQSGNSQESVTEQDSKDSTYSLSSTLTLSKADYEKHKVYACEVTHQGLSSPVTKSFNRGEC
notes: Control from Celgene (US20190263920A1): two anti-BCMA Fabs and one anti-CD3 Fab; also called Celgene BM; celgene BM
B3: anti-BCMA/anti-CD3 multispecific antibody PC1 (bispecific antibody, human IgG1)
chain 1: QVQLVESGGGLVQPGGSLRLSCAASGYSSNVACMAWYRQAPGKGLEWVATIVADFGTTNYAASVKGRFTISQDNSKNTVYLQMNSLRAEDTAVYYCAATQRGGIDWCDEINYWGQGTLVTVSSGGGGSGGGGSQVQLVESGGGLVQPGGSLRLSCAASGFTFNSACMGWFRQAPGKGREGVSRIETGYGGTVYADSVKGRFTISRDNSKNTVYLQMNSLRAEDTAVYYCAAKRSWCTPTWWHELDYNYWGQGTQVTVSSGEPKSSDKTHTCPPCPAPEAAGGPSVFLFPPKPKDTLMISRTPEVTCVVVDVSHEDPEVKFNWYVDGVEVHNAKTKPREEQYNSTYRVVSVLTVLHQDWLNGKEYKCKVSNKALAAPIEKTISKAKGQPREPQVCTLPPSREEMTKNQVSLSCAVKGFYPSDIAVEWESNGQPENNYKTTPPVLDSDGSFFLVSKLTVDKSRWQQGNVFSCSVMHEALHNHYTQKSLSLSPGK
chain 2: ELVVTQEPSLTTSPGGTVTLTCRSSTGAVTTSNYANWVQQKPGQAPRGLIGGTNKRAPGTPARFSGSLLGGKAALTITGVQPEDEAEYYCALWYSNLWVFGGGTKLTVLGGGGSGGGGSGGGGSEVQLVESGGGLVQPGGSLRLSCAASGFTFNTYAMNWVRQAPGKGLEWVARIRSKYNNYATYYADSVKDRFTISRDDSKNTAYLQMNNLKTEDTAMYYCVRHGNFGNSYVSWFAYWGQGTLVTVSSGEPKSSDKTHTCPPCPAPEAAGGPSVFLFPPKPKDTLMISRTPEVTCVVVDVSHEDPEVKFNWYVDGVEVHNAKTKPREEQYNSTYRVVSVLTVLHQDWLNGKEYKCKVSNKALAAPIEKTISKAKGQPREPQVYTLPPCREEMTKNQVSLWCLVKGFYPSDIAVEWESNGQPENNYKTTPPVLDSDGSFFLYSKLTVDKSRWQQGNVFSCSVMHEALHNRFTQKSLSLSPGK
notes: Trivalent; two chains; human IgG1 knobs-into-holes Fc

Assays:
human BCMA on cells [1] = biological target: T1, human BCMA on cells; experiment: cell-based or functional assay
human BCMA on cells [2] = biological target: T1, human BCMA on cells; experiment: flow cytometry, MM1S cells
Procedure: (§1) NCI-H929 cells (BCMA+++), MM1S cells (BCMA++), and RPMI-8226 cells (BCMA+) in the logarithmic growth phase were taken, adjusted to a cell density of 5×10⁶-10×10⁶ cells/mL using RPMI medium (Hyclon, catalog No. SH30809.01) containing 2% FBS (fetal bovine serum), respectively, and seeded in a 96-well U-bottom cell culture plate (Costar, catalog No. 3799) at 50 μL per well. The test antibodies at different concentrations were prepared using the medium described above. […] The antibodies at different concentrations were added to the 96-well cell culture plate described above at 50 μL per well, mixed well and incubated at 4° C. for 1 h. The cells were washed with pre-cooled running buffer (MACS, catalog No. 130-091-221), and the supernatant was discarded. Pre-cooled fluorescent labeled goat anti-human IgG antibodies (Jackson, catalog No. 109-116-170) were added, and the cells were resuspended at 100 μL per well, mixed well and incubated at 4° C. for 30 min. After washing, 100 μL of pre-cooled running buffer was added to resuspend the cells. The cells were mixed well and collected while flowing on an Attune™ NxT flow cytometer, and the data was analyzed using Graphpad Prism5 software. FIGS. 7-9 and Table 11 show the binding ability of the anti-BCMA/anti-CD3 multispecific antibodies to NCI-H929 cells (BCMA+++), MM1S cells (BCMA++), and RPMI-8226 cells (BCMA+).

[3] = biological target: T3, human CD3e (Acro, Cat. No. CDE-H5223) (human, UniProt P07766 23-126); experiment: SPR (Biacore T200), antibody captured by anti-hIgG, human CD3e as analyte, 1:1 model
T3 construct: also called human CD3e protein; hCD3e
Procedure: (§2) The affinity of the test antibody for human CD3e or human BCMA protein was determined by Biacore T200 (GE) as follows:
(§3) The response signals were detected in real time using Biacore software, and association and dissociation curves were obtained. The buffer used in the experiment was Biacore universal buffer (137 mM NaCl, 2.7 mM KCl, 10 mM Na₂HPO₄.12H₂O, 1.8 mM KH₂PO₄. 0.05% surfactant P-20 (w/v), pH 7.4). […] The flow rate in the flow cell was at 50 μL/min, the association was performed for 240 s, the dissociation was performed for 1400 s, the regeneration was performed using 3 M MgCl (GE) for 60 s, and the baseline was stable. Results were obtained by calculation according to the affinity and kinetics 1:1 binding mode in biacore evaluation software.

human BCMA on cells [4] = biological target: T1, human BCMA on cells; experiment: cell-based or functional assay; remark: listed apart in the source
human BCMA on cells [5] = biological target: T1, human BCMA on cells; experiment: flow cytometry, NCI-H929 cells
Procedure: as §1

human BCMA protein = biological target: T2, human BCMA protein; experiment: SPR (Biacore T200), antibody captured by anti-hIgG, human BCMA as analyte, 1:1 model
Procedure: as §2, §3

human BCMA on cells [6] = biological target: T1, human BCMA on cells; experiment: cell-based or functional assay; remark: listed apart in the source
T cell surface CD3 = biological target: T4, T cell surface CD3 (human, UniProt P07766 23-207); experiment: flow cytometry, human CD3+ T cells
T4 construct: whole, on cells; also called CD3^+ T cells
Procedure: Human PBMC cells were sorted for CD3⁺ T cells using CD3 magnetic beads (Miltenyi, catalog No. 130-097-043): the cryopreserved PBMCs were thawed, and washed by centrifugation twice for counting. Running buffer (MACS, catalog No. 130-091-221) was added in a cell-to-buffer ratio of 10⁷:80 μL, CD3 beads were added in a cell-to-bead ratio of 10⁷:20 μL, and the mixture was mixed well and incubated at 4° C. for 15 min. The cells were washed with buffer in a cell-to-buffer ratio of 10⁷:1-2 mL. After centrifugation, the supernatant was discarded, and 500 μL of buffer was added to resuspend the cell pellet. The LS sorting column (Miltenyi, catalog No. 130-042-401) was placed on the MidiMACS Starting Kit (LS) magnetic rack (Miltenyi, catalog No. 130-091-051). After rinsing, the cell suspension was added and washed thrice. The LS sorting column was removed from the magnetic rack and placed on a clean centrifuge tube and 5 mL buffer was added to collect the sorted CD3⁺ T cells. After counting, the CD3⁺ T cells were adjusted to a cell density of 5×10⁶-10×10⁶ cells/mL using RPMI medium (Hyclone, catalog No. SH30809.01) containing 2% FBS (fetal bovine serum) and seeded in a 96-well U-bottom cell culture plate (Costar, catalog No. 3799) at 50 μL per well. The test antibodies at different concentrations were prepared using the medium described above. […] The antibodies at different concentrations were added to the 96-well cell culture plate described above at 50 μL per well, mixed well and incubated at 4° C. for 1 h. The cells were washed with pre-cooled running buffer (MACS, catalog No. 130-091-221), and the supernatant was discarded. Pre-cooled fluorescent labeled goat anti-human IgG antibodies (Jackson, catalog No. 109-116-170) were added, and the cells were resuspended at 100 μL per well, mixed well and incubated at 4° C. for 30 min. After washing, 100 μL of pre-cooled running buffer was added to resuspend the cells.

T4 sequence (P07766 23-207): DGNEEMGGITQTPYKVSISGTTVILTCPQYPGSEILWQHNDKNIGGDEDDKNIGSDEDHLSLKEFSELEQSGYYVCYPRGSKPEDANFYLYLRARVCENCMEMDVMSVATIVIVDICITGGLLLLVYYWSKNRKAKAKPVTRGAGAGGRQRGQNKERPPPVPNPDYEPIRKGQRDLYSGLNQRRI
T3 sequence (P07766 23-126 limits assumed): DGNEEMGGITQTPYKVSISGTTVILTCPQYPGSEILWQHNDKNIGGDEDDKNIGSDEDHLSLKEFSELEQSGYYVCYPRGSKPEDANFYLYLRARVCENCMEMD

Row | Binder | Lysis EC50, MM1S cells with human PBMCs (E:T 10:1, 24 h, LDH release) (human BCMA on cells [1]) [nM] | Maximum lysis rate, MM1S cells with human PBMCs (human BCMA on cells [1]) [%] | EC50 (human BCMA on cells [2]) [nM] | Top(MFI) (human BCMA on cells [2]) | Kd [3] [nM] | Lysis EC50, RPMI-8226 cells with human PBMCs (E:T 10:1, 24 h, LDH release) (human BCMA on cells [4]) [nM] | Maximum lysis rate, RPMI-8226 cells with human PBMCs (human BCMA on cells [4]) [%] | EC50 (human BCMA on cells [5]) [nM] | Top(MFI) (human BCMA on cells [5]) | Kd (human BCMA protein) [nM] | Lysis EC50, NCI-H929 cells with human PBMCs (E:T 10:1, 24 h, LDH release) (human BCMA on cells [6]) [nM] | Maximum lysis rate, NCI-H929 cells with human PBMCs (human BCMA on cells [6]) [%] | EC50 (T cell surface CD3) [nM] | Top(MFI) (T cell surface CD3)
1 | B1 | 0.0407 | 36 | 0.338 | 124000 | 1.17 | 0.0142 | 39 | 0.837 | 223000 | 0.0347 | 0.187 | 35 | 85.8 | 98400
2 | B2 | 0.0847 | 23 | 0.381 | 71400 | 1.6 | 0.271 | 29 | 0.821 | 166000 | 0.821 | 0.0444 | 41 | 18.1 | 93500
3 | B3 | 0.0084 | 26 | 0.35 | 100000 | 1.43 | 0.007 | 29 | 1.26 | 226000 | 0.0396 | 0.0674 | 36 | 485 | 92900
